Laboratory results: paper doi:10.1101/2024.07.30.605799 (bioRxiv, 2024)
Substitutions are numbered along the chain they refer to. Names may count otherwise.

B1: human CAD dihydroorotase (DHO) domain, wild type (domain or fragment, UniProt P27708 1456-1846, looked up)
chain: MTSQKLVRLPGLIDVHVHLREPGGTHKEDFASGTAAALAGGITMVCAMPNTRPPIIDAPALALAQKLAEAGARCDFALFLGASSENAGTLGTVAGSAAGLKLYLNETFSELRLDSVVQWMEHFETWPSHLPIVAHAEQQTVAAVLMVAQLTQRSVHICHVARKEEILLIKAAKARGLPVTCEVAPHHLFLSHDDLERLGPGKGEVRPELGSRQDVEALWENMAVIDCFASDHAPHTLEEKCGSRPPPGFPGLETMLPLLLTAVSEGRLSLDDLLQRLHHNPRRIFHLPPQEDTYVEVDLEHEWTIPSHMPFSKAHWTPFEGQKVKGTVRRVVLRGEVAYIDGQVLVPPGYGQDVRKWPQGAVPQLPPSAPATSEMTTTPERPRRGIPGLPD
modifications: carboxylated lysine K1556
B2: human CAD DHO domain bearing H1687R (domain or fragment, UniProt P27708 1456-1846, looked up)
chain: B1 chain with H232R
B3: human CAD DHO domain bearing S1538L (domain or fragment, UniProt P27708 1456-1846, looked up)
chain: B1 chain with S83L
modifications: carboxylated lysine K1556
B4: human CAD DHO domain bearing S1538A (domain or fragment, UniProt P27708 1456-1846, looked up)
chain: B1 chain with S83A
B5: human CAD DHO domain bearing W1581R (domain or fragment, UniProt P27708 1456-1846, looked up)
chain: B1 chain with W126R
B6: human CAD ATC domain bearing P2186S (domain or fragment, UniProt P27708 1917-2225, looked up)
chain: LLHSLVGQHILSVQQFTKDQMSHLFNVAHTLRMMVQKERSLDILKGKVMASMFYEVSTRTSSSFAAAMARLGGAVLSFSEATSSVQKGESLADSVQTMSCYADVVVLRHPQPGAVELAAKHCRRPVINAGDGVGEHPTQALLDIFTIREELGTVNGMTITMVGDLKHGRTVHSLACLLTQYRVSLRYVAPPSLRMPPTVRAFVASRGTKQEEFESIEEALPDTDVLYMTRIQKERFGSTQEYEACFGQFILTPHIMTRAKKKMVVMHPMSRVNEISVEVDSDPRAAYFRQAENGMYIRMALLATVLGRF

Target: the molecule itself
Assay: SEC

Row | Protein | stoichiometry N
1 | B1 | 2
2 | B2 | 2
3 | B3 | 2
4 | B4 | 2
5 | B5 | 2

Target: the molecule itself
Assay: SEC
Remark: another data set of the same source

Row | Protein | stoichiometry N
6 | B6 | 3
